# US20160185837A1 (Medimmune Limited, priority 2013, published 2016)
# Where two headings read alike, the source gives them in different places. Ends that are not written are not given here.
# Columns and labels:
# Format in all cases: cell-based
# [1] = target: T1, human GIP receptor (hGIPr) (Homo sapiens, UniProt P48546); assay: BSA-cAMP assay, cells expressing human GIP receptor; conditions: BSA-cAMP assay
# T1 construct: expressed in transfected cells
# T1 sequence (P48546 22-466): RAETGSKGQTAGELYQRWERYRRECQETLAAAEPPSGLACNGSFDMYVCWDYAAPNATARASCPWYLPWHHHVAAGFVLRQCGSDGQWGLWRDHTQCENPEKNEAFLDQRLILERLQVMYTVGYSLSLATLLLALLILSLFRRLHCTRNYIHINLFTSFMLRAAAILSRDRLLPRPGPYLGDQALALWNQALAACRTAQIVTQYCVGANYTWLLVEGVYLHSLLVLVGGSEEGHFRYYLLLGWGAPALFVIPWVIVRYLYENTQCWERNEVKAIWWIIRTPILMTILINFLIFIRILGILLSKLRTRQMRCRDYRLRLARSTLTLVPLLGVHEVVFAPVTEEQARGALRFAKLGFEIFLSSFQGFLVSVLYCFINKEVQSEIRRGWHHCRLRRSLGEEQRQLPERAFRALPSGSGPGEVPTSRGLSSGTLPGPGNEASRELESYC
# Description: For human GIPr, two different lines were used, shown as “hGIPr” and “hGIPr (C3)” in Table 11.
# (§1) One basic cAMP assays was performed, differing in the medium used for the assay, the “BSA-cAMP assay”:
# (§2) BSA-based assay medium: 0.1% bovine serum albumin (BSA) in
# (§3) In certain aspects, the assay can also be carried out in medium supplemented with serum albumin that corresponds to the receptor being tested, e.g., human serum albumin for testing cAMP activity at hGIPr or hGLP-1r, rat serum albumin for testing cAMP activity at rGIPr or rGLP-1r, and so on. […] All sample dilutions were made in duplicate.
# (§4) A frozen cryo-vial of cells expressing the receptor of interest was thawed rapidly in a water-bath, transferred to pre-warmed assay media and spun at 240×g for 5 minutes. Cells were re-suspended in assay buffer at an optimized concentration (e.g., hGLP-1r and hGIPr cells at 0.5×10^5 cells/ml).
# (§5) To this, 5 μL cell suspension was added and the plates incubated at room temperature for 30 minutes.
# (§6) cAMP levels were measured using a commercially available cAMP dynamic 2 HTRF kit (Cisbio, Cat #62AM4PEJ), following the two step protocol as per manufacturer's recommendations. In brief; anti-cAMP cryptate (donor fluorophore) and cAMP-d2 (acceptor fluorophore) were made up separately by diluting each 1/20 in conjugate & lysis buffer provided in the kit. 5 μL anti-cAMP cryptate was added to all wells of the assay plate, and 5 μL cAMP-d2 added to all wells except non-specific binding (NSB) wells, to which conjugate and lysis buffer was added. […] Data was transformed to % Delta F as described in manufacturer's guidelines and then transformed to percent activation of maximal native agonist response and analysed by 4-parameter logistic fit to determine EC50 values.
# (§7) We used unconstrained 4 parameter logistic fit of data, curve mid-point to determine EC50. This was tested on two occasions, not two batches.
# [2] = target: T2, human glucagon receptor (GCGr) (Homo sapiens, UniProt P47871); assay: BSA-cAMP assay, cells expressing human glucagon receptor
# T2 construct: expressed in transfected cells; host or cells: HEK293s or CHO cells
# T2 sequence (P47871 26-477): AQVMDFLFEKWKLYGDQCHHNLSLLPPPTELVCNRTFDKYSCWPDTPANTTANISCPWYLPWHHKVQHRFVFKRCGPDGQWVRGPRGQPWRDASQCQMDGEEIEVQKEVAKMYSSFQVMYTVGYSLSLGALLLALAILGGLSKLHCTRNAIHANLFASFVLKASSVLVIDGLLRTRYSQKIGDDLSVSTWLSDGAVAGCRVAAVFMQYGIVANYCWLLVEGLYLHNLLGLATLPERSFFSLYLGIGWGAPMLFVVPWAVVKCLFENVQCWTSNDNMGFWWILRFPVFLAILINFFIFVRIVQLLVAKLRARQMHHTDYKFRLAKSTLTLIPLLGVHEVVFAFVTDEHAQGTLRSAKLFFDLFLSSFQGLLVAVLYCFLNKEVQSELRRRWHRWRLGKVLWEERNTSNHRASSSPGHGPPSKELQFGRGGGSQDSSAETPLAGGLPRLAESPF
# Description: as §1, §2, §3, §4, §5, §6, §7
# [3] = target: T3, human GLP-1 receptor (hGLP-1r) (Homo sapiens, UniProt P43220); assay: BSA-cAMP assay, cells expressing human GLP-1 receptor; conditions: BSA-cAMP assay
# T3 construct: expressed in transfected cells
# T3 sequence (P43220 24-463): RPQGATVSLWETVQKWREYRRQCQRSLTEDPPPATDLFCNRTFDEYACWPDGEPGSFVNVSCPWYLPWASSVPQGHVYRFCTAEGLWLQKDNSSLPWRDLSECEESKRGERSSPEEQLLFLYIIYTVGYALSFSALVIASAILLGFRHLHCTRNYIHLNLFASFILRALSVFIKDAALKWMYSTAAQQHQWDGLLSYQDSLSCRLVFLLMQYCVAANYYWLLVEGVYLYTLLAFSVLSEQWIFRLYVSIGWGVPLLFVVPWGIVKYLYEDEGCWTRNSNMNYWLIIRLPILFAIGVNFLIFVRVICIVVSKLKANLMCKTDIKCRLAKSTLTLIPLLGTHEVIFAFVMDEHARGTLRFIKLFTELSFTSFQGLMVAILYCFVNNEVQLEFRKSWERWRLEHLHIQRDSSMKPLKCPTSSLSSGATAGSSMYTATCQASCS
# Description: as §1, §2, §3, §4, §5, §6, §7
# [4] = target: T4, mouse GLP-1 receptor (mGLP-1r) (Mus musculus, UniProt O35659); assay: BSA-cAMP assay, cells expressing mouse GLP-1 receptor; conditions: BSA-cAMP assay
# T4 construct: expressed in transfected cells; host or cells: HEK293s or CHO cells
# T4 sequence (O35659 22-463): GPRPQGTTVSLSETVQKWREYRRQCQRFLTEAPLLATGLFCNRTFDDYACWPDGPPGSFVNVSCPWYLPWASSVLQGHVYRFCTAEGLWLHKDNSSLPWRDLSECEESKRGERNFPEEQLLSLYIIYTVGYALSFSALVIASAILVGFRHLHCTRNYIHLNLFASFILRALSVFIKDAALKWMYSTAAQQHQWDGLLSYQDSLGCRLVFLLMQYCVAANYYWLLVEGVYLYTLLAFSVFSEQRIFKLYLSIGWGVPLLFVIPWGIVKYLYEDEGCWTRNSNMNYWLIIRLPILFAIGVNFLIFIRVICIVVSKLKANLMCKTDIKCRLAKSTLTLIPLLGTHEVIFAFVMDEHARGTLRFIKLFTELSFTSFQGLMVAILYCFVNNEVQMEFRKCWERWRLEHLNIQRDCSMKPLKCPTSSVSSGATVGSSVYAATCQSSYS
# Description: as §1, §2, §3, §4, §5, §6, §7
# (§8) In order to be able to carry out in vivo studies in rodents, IP088 was tested for potency against the mouse receptors mGIPr and mGLP-1r as well as the rat receptors rGIPr and rGLP-1r, using cells expressing the respective receptors in the cAMP assay described above.
# [5] = target: T5, mouse GIP receptor (mGIPr) (Mus musculus, UniProt Q0P543); assay: BSA-cAMP assay, cells expressing mouse GIP receptor; conditions: BSA-cAMP assay
# T5 construct: expressed in transfected cells; host or cells: HEK293s or CHO cells
# T5 sequence (Q0P543 19-460): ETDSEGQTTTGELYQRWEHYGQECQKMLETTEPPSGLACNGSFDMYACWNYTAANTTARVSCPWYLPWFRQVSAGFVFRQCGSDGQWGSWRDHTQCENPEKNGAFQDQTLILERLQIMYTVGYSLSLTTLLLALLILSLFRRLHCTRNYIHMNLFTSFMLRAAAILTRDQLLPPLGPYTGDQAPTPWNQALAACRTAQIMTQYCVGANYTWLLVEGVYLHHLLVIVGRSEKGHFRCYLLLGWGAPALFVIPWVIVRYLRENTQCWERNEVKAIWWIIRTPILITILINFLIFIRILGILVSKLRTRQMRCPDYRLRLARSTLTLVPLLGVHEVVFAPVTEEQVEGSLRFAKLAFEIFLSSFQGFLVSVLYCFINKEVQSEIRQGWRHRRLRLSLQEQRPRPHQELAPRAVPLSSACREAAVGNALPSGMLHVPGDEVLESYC
# Description: as §1, §2, §3, §4, §5, §6, §7, §8
# rat GIP receptor (rGIPr) = target: T6, rat GIP receptor (rGIPr) (Rattus norvegicus, UniProt P43219); assay: BSA-cAMP assay, cells expressing rat GIP receptor; conditions: BSA-cAMP assay
# T6 construct: expressed in transfected cells; host or cells: HEK293s or CHO cells
# T6 sequence (P43219 19-455): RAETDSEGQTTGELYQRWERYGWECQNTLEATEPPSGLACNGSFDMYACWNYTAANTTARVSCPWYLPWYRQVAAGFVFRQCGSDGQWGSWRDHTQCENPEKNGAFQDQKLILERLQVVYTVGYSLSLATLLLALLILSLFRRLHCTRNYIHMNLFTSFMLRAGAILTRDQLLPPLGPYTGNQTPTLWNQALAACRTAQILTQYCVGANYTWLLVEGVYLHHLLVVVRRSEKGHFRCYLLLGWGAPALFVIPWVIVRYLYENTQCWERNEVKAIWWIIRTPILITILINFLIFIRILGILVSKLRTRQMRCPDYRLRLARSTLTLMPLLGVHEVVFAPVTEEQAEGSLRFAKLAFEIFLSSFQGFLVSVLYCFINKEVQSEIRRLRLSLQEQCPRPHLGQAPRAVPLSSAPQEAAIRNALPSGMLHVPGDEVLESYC
# Description: as §1, §2, §3, §4, §5, §6, §7, §8
# [6] = target: T7, rat GLP-1 receptor (rGLP-1r) (Rattus norvegicus, UniProt P32301); assay: BSA-cAMP assay, cells expressing rat GLP-1 receptor; conditions: BSA-cAMP assay
# T7 construct: expressed in transfected cells; host or cells: HEK293s or CHO cells
# T7 sequence (P32301 22-463): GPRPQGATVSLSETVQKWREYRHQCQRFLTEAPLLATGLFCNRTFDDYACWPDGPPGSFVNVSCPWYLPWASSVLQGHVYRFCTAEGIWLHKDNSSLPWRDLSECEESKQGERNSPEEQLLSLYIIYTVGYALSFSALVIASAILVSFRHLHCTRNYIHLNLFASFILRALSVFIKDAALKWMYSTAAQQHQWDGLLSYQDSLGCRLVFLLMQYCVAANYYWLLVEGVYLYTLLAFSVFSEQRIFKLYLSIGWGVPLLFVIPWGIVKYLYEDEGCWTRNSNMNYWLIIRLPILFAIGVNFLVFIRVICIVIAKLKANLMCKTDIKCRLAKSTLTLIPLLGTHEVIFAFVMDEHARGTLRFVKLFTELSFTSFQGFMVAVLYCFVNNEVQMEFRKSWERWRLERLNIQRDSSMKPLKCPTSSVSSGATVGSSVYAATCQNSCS
# Description: as §1, §2, §3, §4, §5, §6, §7, §8
# [7] = batch 1 unless a batch is given, read-out: cAMP activity hGIPr (EC50)
# [8] = batch 1 unless a batch is given, read-out: cAMP activity hGCGr (EC50)
# [9] = batch 1 unless a batch is given, read-out: cAMP activity hGLP1r (EC50)
# [10] = read-out: cAMP activity mGLP1r (EC50)
# [11] = read-out: cAMP activity mGIPr (EC50)
# [12] = read-out: cAMP activity rGIPr (EC50)
# [13] = read-out: cAMP activity rGLP1r (EC50)
# [14] = Batch 1, read-out: hGCGr cAMP activity EC50
# [15] = Batch 1, read-out: hGLP1r cAMP activity EC50
# [16] = Batch 1, read-out: mGIPr cAMP activity EC50
substance,measurement,setting,value
IP193 (HGEGTFTSDVSSYLEGQAAKEFIAWLVKGAAAGGSGSTASSGSGSATGGGGCPPCPAPEF; also: forms dimer via hinge disulfides),EC50,[1]; [7],450 nM
same,EC50,[2]; [8],780 nM
same,EC50,[3]; [9],0.064 nM
IP196 (HGEGTFTSDVSSYLEGQAAKEFIAWLVKGAAAGGSGSTASSGSGSATGGGGAPEF; /note=“Description of Artificial Sequence Synthetic Peptide-linker-hinge polypeptide”),EC50,[3]; [9],0.073 nM
IP231 (HGEGTFTSDVSSYLEEQAAKEFIAWLVKGGGGGGSGGGGSGGGGSGGGGSATHTCPPC; also: forms dimer via hinge disulfides),EC50,[3]; [9],0.067 nM
IP238 (HGEGTFTSDVSSYLEGQAAKEFIAWLVKGGGGGGSGGGGSGGGGSAESKYGPPCPPC; also: forms dimer via hinge disulfides),EC50,[1]; [7],310 nM
same,EC50,[3]; [9],0.058 nM
"IP275: Fc fusion, IgG1-TM, SEQ ID NO:332; agonist peptide YSEGTFTSDYSKLLEKEAQRLFIEWLLKGP (YSEGTFTSDYSKLLEKEAQRLFIEWLLKGPGGGGGSGGGGSGGGGSGGGGSATHTCPPC)",EC50,[4]; [10],1.7 nM
same,EC50,[5]; [11],0.26 nM
same,EC50,[1]; [7],0.0087 nM
same,EC50,[2]; [8],230 nM
same,EC50,rat GIP receptor (rGIPr); [12],0.014 nM
same,EC50,[6]; [13],0.062 nM
same,EC50,[3]; [9],0.92 nM
"IP289: Fc fusion, IgG1-TM(ΔK), SEQ ID NO:342; agonist peptide YSEGTFTSDYSKLLEKEAERLFIEWLLKGP (YSEGTFTSDYSKLLEKEAERLFIEWLLKGPGGGGGSGGGGSGGGGSGGGGSATHTCPPC)",EC50,[4]; [10],6.8 nM
same,EC50,[5]; [11],0.44 nM
same,EC50,[1]; [7],0.01 nM
same,EC50,[2]; [8],240 nM
same,EC50,rat GIP receptor (rGIPr); [12],0.02 nM
same,EC50,[6]; [13],0.23 nM
same,EC50,[3]; [9],3.4 nM
IP319 (YSEGTFTSDYSKLLEAAAAAAFAAWLAAAAGGGGGSGGGGSGGGGSGGGGSACPPC),EC50,"[2]; Batch 2, read-out: hGCGr cAMP activity EC50",> 445 nM
same,EC50,"[3]; Batch 2, read-out: hGLP1r cAMP activity EC50",170 nM
IP353 (YSEGTFTSDYAAAAEAAAAAAFAAWLAKAAGGGGGSGGGGSGGGGSGGGGSACPPC),EC50,"[1]; Batch 1, read-out: hGIPr cAMP activity EC50",1 nM
same,EC50,[2]; [14],> 3210 nM
same,EC50,[3]; [15],20 nM
"IP407: Fc fusion, IgG1-TM, SEQ ID NO:384; agonist peptide YSEGTFTSDYSKLLEEEAIRLFIEWLLAGG (YSEGTFTSDYSKLLEEEAIRLFIEWLLAGGGGGGSGGGGSGGGGSGGGGSATHTCPPC)",EC50,[5]; [16],2.3 nM
same,EC50,[2]; [14],> 163 nM
same,EC50,[3]; [15],0.25 nM
"IP413: Fc fusion, IgG1-TM, SEQ ID NO:388; agonist peptide YSEGTFTSDYSKLLEEEASRLFIEWLLAGG (YSEGTFTSDYSKLLEEEASRLFIEWLLAGGGGGGSGGGGSGGGGSGGGGSATHTCPPC)",EC50,"[4]; Batch 1, read-out: mGLP1r cAMP activity EC50",8.9 nM
same,EC50,[5]; [16],3.7 nM
same,EC50,[2]; [14],7.6 nM
same,EC50,"rat GIP receptor (rGIPr); Batch 1, read-out: rGIPr cAMP activity EC50",> 113 nM
same,EC50,"[6]; Batch 1, read-out: rGLP1r cAMP activity EC50",0.048 nM
same,EC50,[3]; [15],0.19 nM
"IP420: Fc fusion, IgG1-TM, SEQ ID NO:391; agonist peptide YSEGTFTSDYSKLLEEEATRLFIEWLLAGG (YSEGTFTSDYSKLLEEEATRLFIEWLLAGGGGGGSGGGGSGGGGSGGGGSATHTCPPC)",EC50,[5]; [16],2.6 nM
same,EC50,[2]; [14],21 nM
same,EC50,[3]; [15],0.082 nM
